Source: patent US20210380703A1 (RIGEL PHARMACEUTICALS, published 2021)

B1: 371_B11 (antibody, V domains shown)
VH: EVQLLESGGGLVQPGGSLRLSCAASGFTFSSYSMHWVRQAPGKGLEWVASINYNSGYTSYADSVKGRFTISRDNSKNTLYLQMNSLRAEDTAVYYCARAATWHDTHLDYWGQGTLVTVSS
VL: DIQMTQSPSSLSASVGDRVTITCRASQSILTYLNWYQQKPGKAPKLLIYAATSRASGVPSRFSGSGSGTDFTLTISSLQPEDFATYYCQQSYELPLTFGGGTKVEIK
notes: Group II
B2: 371_C02 (antibody, V domains shown)
VH: EVQLLESGGGLVQPGGSLRLSCAASGFTFDSYGMHWVRQAPGKGLEWVAGINYNSGYTGYADSVKGRFTISRDNSKNTLYLQMNSLRAEDTAVYYCARAATWHDTHLDYWGQGTLVTVSS
VL: DIQMTQSPSSLSASVGDRVTITCRASQSILTYVNWYQQKPGKAPKLLIYAASSLQSGVPSRFSGSGSGTDFTLTISSLQPEDFATYYCQQSYDTPLTFGGGTKVEIK
notes: Group II
B3: 371_D05 (antibody, V domains shown)
VH: EVQLLESGGGLVQPGGSLRLSCAASGFTFDDYGMHWVRQAPGKGLEWVSGINYNGGYTSYADSVKGRFTISRDNSKNTLYLQMNSLRAEDTAVYYCARAATWHDTHLDYWGQGTLVTVSS
VL: DIQMTQSPSSLSASVGDRVTITCRASQSILTYLNWYQQKPGKAPKLLIYAASSLQSGVPSRFSGSGSGTDFTLTISSLQPEDFATYYCQQSYDSPLTFGGGTKVEIK
notes: Group II
B4: 371_D12 (antibody, V domains shown)
VH: EVQLLESGGGLVQPGGSLRLSCAASGFTFDSYGMNWVRQAPGKGLEWVSGINYNGGYKSYADSVKGRFTISRDNSKNTLYLQMNSLRAEDTAVYYCARAANWHDTALDYWGQGTLVTVSS
VL: DIQMTQSPSSLSASVGDRVTITCRASQSILSYLNWYQQKPGKAPKLLIYAATSRASGVPSRFSGSGSGTDFTLTISSLQPEDFATYYCQQSYELPLTFGGGTKVEIK
notes: Group I
B5: 371_F07 (antibody, V domains shown)
VH: EVQLLESGGGLVQPGGSLRLSCAASGFTFSSYGMHWVRQAPGKGLEWVAGINYNGGYTSYADSVKGRFTISRDNSKNTLYLQMNSLRAEDTAVYYCARAATWHDTHLDYWGQGTLVTVSS
VL: DIQMTQSPSSLSASVGDRVTITCRASQSILTYLNWYQQKPGKAPKLLIYAATSLASGVPSRFSGSGSGTDFTLTISSLQPEDFATYYCQQSDSNPLTFGGGTKVEIK
notes: Group II
B6: 371_G07 (antibody, V domains shown)
VH: EVQLLESGGGLVQPGGSLRLSCAASGFTFSDYGMHWVRQAPGKGLEWVAGINYNGGYTSYADSVKGRFTISRDNSKNTLYLQMNSLRAEDTAVYYCARAATWHDTHLDYWGQGTLVTVSS
VL: DIQMTQSPSSLSASVGDRVTITCRASQSIVSYVNWYQQKPGKAPKLVIYAATSRASGVPSRFSGSGSGTDFTLTISSLQPEDFATYYCQQSYSLPLTFGGGTKVEIK
notes: Group II
B7: 371_H02 (antibody, V domains shown)
VH: EVQLLESGGGLVQPGGSLRLSCAASGFTFDDYSMNWVRQAPGKGLEWVSGINYNGGYKSYADSVKGRFTISRDNSKNTLYLQMNSLRAEDTAVYYCARAANWHDTHLDYWGQGTLVTVSS
VL: DIQMTQSPSSLSASVGDRVTITCRASQSIISYLNWYQQKPGKAPKLVIYAATSLASGVPSRFSGSGSGTDFTLTISSLQPEDFATYYCQQSYENPLTFGGGTKVEIK
notes: Group I
B8: 372_A09 (antibody, V domains shown)
VH: EVQLLESGGGLVQPGGSLRLSCAASGFTFDSYGMNWVRQAPGKGLEWVSGINYNGGYTSYADSVKGRFTISRDNSKNTLYLQMNSLRAEDTAVYYCARAANWHDTALDYWGQGTLVTVSS
VL: DIQMTQSPSSLSASVGDRVTITCRASQSILSYLNWYQQKPGKAPKLVIYAATSRASGVPSRFSGSGSGTDFTLTISSLQPEDFATYYCQQSYNSPLTFGGGTKVEIK
notes: Group I
B9: 372_B11 (antibody, V domains shown)
VH: EVQLLESGGGLVQPGGSLRLSCAASGFTFSSYSMHWVRQAPGKGLEWVAGINYNSGYTSYADSVKGRFTISRDNSKNTLYLQMNSLRAEDTAVYYCARAANWHDTHLDYWGQGTLVTVSS
VL: DIQMTQSPSSLSASVGDRVTITCRASQSILTYVNWYQQKPGKAPKLVIYAATSLASGVPSRFSGSGSGTDFTLTISSLQPEDFATYYCQQSYDTPLTFGGGTKVEIK
notes: Group I
B10: 372_D07 (antibody, V domains shown)
VH: EVQLLESGGGLVQPGGSLRLSCAASGFTFSSYGMNWVRQAPGKGLEWVAGINYNGGYTSYADSVKGRFTISRDNSKNTLYLQMNSLRAEDTAVYYCARAATWHDTHLDYWGQGTLVTVSS
VL: DIQMTQSPSSLSASVGDRVTITCRASQSILSYLNWYQQKPGKAPKLLIYAATSRASGVPSRFSGSGSGTDFTLTISSLQPEDFATYYCQQSYESPLTFGGGTKVEIK
notes: Group II
B11: 372_E02 (antibody, V domains shown)
VH: EVQLLESGGGLVQPGGSLRLSCAASGFTFSSYGMNWVRQAPGKGLEWVASINYNGGYTSYADSVKGRFTISRDNSKNTLYLQMNSLRAEDTAVYYCARAANWHDTALDYWGQGTLVTVSS
VL: DIQMTQSPSSLSASVGDRVTITCRASQSIISYVNWYQQKPGKAPKLVIYAATSRASGVPSRFSGSGSGTDFTLTISSLQPEDFATYYCQQSYDLPLTFGGGTKVEIK
notes: Group I
B12: 373_B01 (antibody, V domains shown)
VH: EVQLLESGGGLVQPGGSLRLSCAASGFTFDSYGMHWVRQAPGKGLEWVSGINYNGGYKSYADSVKGRFTISRDNSKNTLYLQMNSLRAEDTAVYYCARAATWHDTHLDYWGQGTLVTVSS
VL: DIQMTQSPSSLSASVGDRVTITCRASQSILSYVNWYQQKPGKAPKLVIYAATSRASGVPSRFSGSGSGTDFTLTISSLQPEDFATYYCQQSYDLPLTFGGGTKVEIK
notes: Group II
B13: 373_D11 (antibody, V domains shown)
VH: EVQLLESGGGLVQPGGSLRLSCAASGFTFSSYGMHWVRQAPGKGLEWVAGINYNGGYTSYADSVKGRFTISRDNSKNTLYLQMNSLRAEDTAVYYCARAATWHDTHLDYWGQGTLVTVSS
VL: DIQMTQSPSSLSASVGDRVTITCRASQSILTYVNWYQQKPGKAPKLLIYAATSRASGVPSRFSGSGSGTDFTLTISSLQPEDFATYYCQQSYDNPLTFGGGTKVEIK
notes: Group II
B14: 373_E11 (antibody, V domains shown)
VH: EVQLLESGGGLVQPGGSLRLSCAASGFTFDSYGMHWVRQAPGKGLEWVASINYNGGYTSYADSVKGRFTISRDNSKNTLYLQMNSLRAEDTAVYYCARAANWHDTALDYWGQGTLVTVSS
VL: DIQMTQSPSSLSASVGDRVTITCRASQSIVSYLNWYQQKPGKAPKLVIYAATSRASGVPSRFSGSGSGTDFTLTISSLQPEDFATYYCQQSYDSPLTFGGGTKVEIK
notes: Group I
B15: 373_G06 (antibody, V domains shown)
VH: EVQLLESGGGLVQPGGSLRLSCAASGFTFSSYGMHWVRQAPGKGLEWVASINYNSGYTGYADSVKGRFTISRDNSKNTLYLQMNSLRAEDTAVYYCARAATWHDTHLDYWGQGTLVTVSS
VL: DIQMTQSPSSLSASVGDRVTITCRASQSILSYVNWYQQKPGKAPKLLIYAATSLASGVPSRFSGSGSGTDFTLTISSLQPEDFATYYCQQSYNLPLTFGGGTKVEIK
notes: Group II
B16: 374_A12 (antibody, V domains shown)
VH: EVQLLESGGGLVQPGGSLRLSCAASGFTFDSYGMHWVRQAPGKGLEWVSSINYNGGYTSYADSVKGRFTISRDNSKNTLYLQMNSLRAEDTAVYYCARAATWHDTHLDYWGQGTLVTVSS
VL: DIQMTQSPSSLSASVGDRVTITCRASQSILTYLNWYQQKPGKAPKLLIYAATSRASGVPSRFSGSGSGTDFTLTISSLQPEDFATYYCQQSDSNPLTFGGGTKVEIK
notes: Group II
B17: 374_B01 (antibody, V domains shown)
VH: EVQLLESGGGLVQPGGSLRLSCAASGFTFDSYGMHWVRQAPGKGLEWVAGINYNSGYTSYADSVKGRFTISRDNSKNTLYLQMNSLRAEDTAVYYCARAATWHDTHLDYWGQGTLVTVSS
VL: DIQMTQSPSSLSASVGDRVTITCRASQSILSYLNWYQQKPGKAPKLLIYAASSLQSGVPSRFSGSGSGTDFTLTISSLQPEDFATYYCQQSYDSPLTFGGGTKVEIK
notes: Group II
B18: 374_B02 (antibody, V domains shown)
VH: EVQLLESGGGLVQPGGSLRLSCAASGFTFDSYSMHWVRQAPGKGLEWVAGINYNSGYTSYADSVKGRFTISRDNSKNTLYLQMNSLRAEDTAVYYCARAANWHDTHLDYWGQGTLVTVSS
VL: DIQMTQSPSSLSASVGDRVTITCRASQSIISYLNWYQQKPGKAPKLLIYAATSRASGVPSRFSGSGSGTDFTLTISSLQPEDFATYYCQQSYDSPLTFGGGTKVEIK
notes: Group I
B19: 374_B07 (antibody, V domains shown)
VH: EVQLLESGGGLVQPGGSLRLSCAASGFTFSSYGMHWVRQAPGKGLEWVSSINYNGGYKSYADSVKGRFTISRDNSKNTLYLQMNSLRAEDTAVYYCARAATWHDTHLDYWGQGTLVTVSS
VL: DIQMTQSPSSLSASVGDRVTITCRASQSIISYLNWYQQKPGKAPKLLIYAATSLASGVPSRFSGSGSGTDFTLTISSLQPEDFATYYCQQSYESPLTFGGGTKVEIK
notes: Group II

Legend:
[1] = target: T1, human ACVR2A (human, UniProt P27037 20-135, limits assumed); assay: ELISA
T1 construct: also called activin receptor, type II A
Procedure, shortened: (§1)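 Binding signal was read by ELISA after ACVR2A-specific monoclonal antibodies were tested against human ACVR2A and mouse ACVR2A, with human Fc as the negative control.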

[2] = target: mouse ACVR2A (mouse, UniProt P27038 20-135, limits assumed); assay: ELISA
Procedure, shortened: as §1

[3] = target: T2, biotinylated goat anti-human kappa light chain; assay: ELISA, positive control
T2 construct: positive control of the ELISA
Procedure, shortened: as §1
Further: test concentration or dose not given here.

Sequence of mouse ACVR2A (P27038 20-135 limits assumed): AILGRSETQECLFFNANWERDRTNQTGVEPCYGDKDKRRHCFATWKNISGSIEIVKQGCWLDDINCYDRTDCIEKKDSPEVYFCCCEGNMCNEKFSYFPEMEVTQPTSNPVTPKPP
T1 sequence (P27037 20-135 limits assumed): as the sequence (P27038 20-135 limits assumed) above, with R20K, I73V counted along it

optical density [1] [OD]	optical density [2] [OD]	optical density [3] [OD]	Binder
3.18	3.26	3.59	B1
2.92	2.88	3.66	B2
2.72	3.11	3.44	B3
1.89	2	3.44	B4
2.78	2.89	3.34	B5
2.8	2.99	3.41	B6
1.88	2.03	3.62	B7
2.43	2.56	3.5	B8
2.31	2.58	3.73	B9
2.68	2.99	3.7	B10
2.84	2.74	3.58	B11
3.26	3.58	3.11	B12
3.57	3.55	3.2	B13
3.3	3.36	3.17	B14
3.4	3.52	3.23	B15
3.31	3.26	3.06	B16
3.14	3.37	2.92	B17
3.42	3.54	3.02	B18
3.71	3.71	3.29	B19
